Experimental findings from patent WO2010066762A1 are described below.

The target of this assay is Recombinant Interleukin-1 beta (IL-1B) (human) (UniProt P01584). Put plainly: cell-based or functional assay.
UniProt P01584, sequence (P01584 117-269 limits assumed): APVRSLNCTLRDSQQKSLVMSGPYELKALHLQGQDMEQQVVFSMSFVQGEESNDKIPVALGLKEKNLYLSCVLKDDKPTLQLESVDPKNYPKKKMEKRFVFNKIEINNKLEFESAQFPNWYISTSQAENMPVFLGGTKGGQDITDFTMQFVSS

Regarding ACZ885 antibody, the Bioassay [%] (relative potency vs ACZ885 reference standard); reconstituted lyophilisate F1, stored at 5°C amounted to 103%; the Bioassay [%] (relative potency vs ACZ885 reference standard); reconstituted lyophilisate F1, stored at 25°C was found to be 99%; the Bioassay [%] (relative potency vs ACZ885 reference standard); reconstituted lyophilisate F1, stored at 40°C was found to be 93%; the Bioassay [%] (relative potency vs ACZ885 reference standard); reconstituted lyophilisate F3, stored at 5°C was determined as 101%. The Bioassay [%] (relative potency vs ACZ885 reference standard); reconstituted lyophilisate F3, stored at 25°C turned out to be 91%; the Bioassay [%] (relative potency vs ACZ885 reference standard); reconstituted lyophilisate F3, stored at 40°C worked out at 95%; the Reporter Gene Assay [%] (relative potency vs ACZ885 reference standard); liquid formulation 150 mg/mL, start worked out at 121%; the Reporter Gene Assay [%] (relative potency vs ACZ885 reference standard); liquid formulation, 5°C, 4 months turned out to be 97%. Further, the Reporter Gene Assay [%] (relative potency vs ACZ885 reference standard); liquid formulation, 5°C, 10 months came out at 99%; the Reporter Gene Assay [%] (relative potency vs ACZ885 reference standard); liquid formulation, 5°C, 16.5 months was found to be 110%; the Reporter Gene Assay [%] (relative potency vs ACZ885 reference standard); liquid formulation, 5°C, 24 months (n=4) stood at 99%; the Reporter Gene Assay [%] (relative potency vs ACZ885 reference standard); liquid formulation, 25°C, 4 months stood at 100%. The Reporter Gene Assay [%] (relative potency vs ACZ885 reference standard); liquid formulation, 25°C, 10 months is 85%; the Reporter Gene Assay [%] (relative potency vs ACZ885 reference standard); liquid formulation, 25°C, 16.5 months worked out at 74%; the Reporter Gene Assay [%] (relative potency vs ACZ885 reference standard); liquid formulation, 25°C, 24 months (n=4) was 70%; the Reporter Gene Assay [%] (relative potency vs ACZ885 reference standard); liquid formulation, 40°C, 2 months came to 78%. Also, the Reporter Gene Assay [%] (relative potency vs ACZ885 reference standard); liquid formulation, 40°C, 4 months amounted to 53%.
